From publication PMC8551656, “Discovery of a novel role of tumor suppressor PDCD4 in stimulation of translation termination” (The Journal of Biological Chemistry, 2021) come the findings set out here.

The experiment concerns the target T1, poly(A)-binding protein (PABP) (human, UniProt P11940 1-636).
T1 construct: source: E. coli BL21, purified (Ni-NTA agarose, ion-exchange chromatography)
Briefly: pull-down; GST-PDCD4 (40 pmol) incubated with PABP (40 pmol) in solution, 20 μl, 1 h at 4 °C, 25 mM Tris-HCl pH 7.5, 10% glycerol, 100 mM KCl, 2.5 mM MgCl2, 2 mM DTT, 0.25 mM spermidine, 0.2 mM GTP; then held on glutathione-sepharose 4B, four washes, release by TEV protease, western blot. Conditions: both partners purified. For orientation: A western blot detects proteins with antibodies after separation by electrophoresis.

T1 sequence (P11940 whole entry): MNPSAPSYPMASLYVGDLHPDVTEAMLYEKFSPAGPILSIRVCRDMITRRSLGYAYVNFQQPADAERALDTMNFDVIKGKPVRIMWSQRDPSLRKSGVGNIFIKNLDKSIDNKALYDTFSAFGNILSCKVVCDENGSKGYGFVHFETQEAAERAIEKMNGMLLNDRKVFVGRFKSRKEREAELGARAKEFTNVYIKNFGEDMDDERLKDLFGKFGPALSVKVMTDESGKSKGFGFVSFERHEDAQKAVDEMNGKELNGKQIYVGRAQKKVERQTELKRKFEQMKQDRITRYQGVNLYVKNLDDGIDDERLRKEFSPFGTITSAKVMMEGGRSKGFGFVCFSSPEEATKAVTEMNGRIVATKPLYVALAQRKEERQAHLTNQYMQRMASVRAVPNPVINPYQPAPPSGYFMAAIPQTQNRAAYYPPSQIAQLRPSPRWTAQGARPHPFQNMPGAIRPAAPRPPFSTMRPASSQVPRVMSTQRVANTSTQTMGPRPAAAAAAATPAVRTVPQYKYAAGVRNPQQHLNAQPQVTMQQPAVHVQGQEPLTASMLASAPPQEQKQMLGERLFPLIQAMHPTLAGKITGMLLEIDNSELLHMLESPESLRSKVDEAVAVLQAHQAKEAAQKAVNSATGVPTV

B1: GST-tagged programmed cell death 4 protein (PDCD4) (natural protein, human, UniProt Q53EL6-1 1-469, looked up)
chain: MDVENEQILNVNPADPDNLSDSLFSGDEENAGTEEIKNEINGNWISASSINEARINAKAKRRLRKNSSRDSGRGDSVSDSGSDALRSGLTVPTSPKGRLLDRRSRSGKGRGLPKKGGAGGKGVWGTPGQVYDVEEVDVKDPNYDDDQENCVYETVVLPLDERAFEKTLTPIIQEYFEHGDTNEVAEMLRDLNLGEMKSGVPVLAVSLALEGKASHREMTSKLLSDLCGTVMSTTDVEKSFDKLLKDLPELALDTPRAPQLVGQFIARAVGDGILCNTYIDSYKGTVDCVQARAALDKATVLLSMSKGGKRKDSVWGSGGGQQSVNHLVKEIDMLLKEYLLSGDISEAEHCLKELEVPHFHHELVYEAIIMVLESTGESTFKMILDLLKSLWKSSTITVDQMKRGYERIYNEIPDINLDVPHSYSVLERFVEECFQAGIISKQLRDLCPSRGRKRFVSEGDGGRLKPESY
notes: human PDCD4, isoform 1, UniProt Q53EL6-1; cDNA cloned into pGEX-6p-1; printed primers run from the start codon to the last codon; Held on glutathione-sepharose by GST in the pull-down; also called GST-PDCD4; recombinant PDCD4; source: E. coli BL21, purified (glutathione-sepharose 4B, eluted with glutathione; HiTrapQ)
Turning to B1, the binding result is reported as “binds”.
